Assay results as given in US20170183413A1 (CELLECTIS, published 2017).

T1: CD123-Fc protein (fusion of the extracellular domain of the human CD123 protein with a murine IgG1 Fc … (human; mouse, UniProt P26951 19-305)
T1 construct: extracellular domain; also called fusion protein; not shown: murine IgG1 Fc fragment
T1 sequence (looked up): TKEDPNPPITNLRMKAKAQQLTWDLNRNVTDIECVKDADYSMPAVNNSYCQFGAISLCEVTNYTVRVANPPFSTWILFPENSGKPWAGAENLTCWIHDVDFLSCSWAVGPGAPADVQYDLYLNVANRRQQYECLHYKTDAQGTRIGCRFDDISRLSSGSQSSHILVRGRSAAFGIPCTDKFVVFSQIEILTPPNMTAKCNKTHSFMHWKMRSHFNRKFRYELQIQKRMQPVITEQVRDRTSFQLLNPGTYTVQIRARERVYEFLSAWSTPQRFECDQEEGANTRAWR

B1: 32716-v3 CAR (32716-3, anti-CD123 chimeric antigen receptor, structure V-3: 32716 scFv, CD8alpha hinge, CD8alpha transmembrane domain, 41BB intracellular … (other)
chain: QIQLVQSGPELKKPGETVKISCKASGYIFTNYGMNWVKQAPGKSFKWMGWINTYTGESTYSADFKGRFAFSLETSASTAYLHINDLKNEDTATYFCARSGGYDPMDYWGQGTSVTVSSGGGGSGGGGSGGGGSDIVLTQSPASLAVSLGQRATISCRASESVDNYGNTFMHWYQQKPGQPPKLLIYRASNLESGIPARFSGSGSRTDFTLTINPVEADDVATYYCQQSNEDPPTFGAGTKLELKTTTPAPRPPTPAPTIASQPLSLRPEACRPAAGGAVHTRGLDFACDIYIWAPLAGTCGVLLLSLVITLYCKRGRKKLLYIFKQPFMRPVQTTQEEDGCSCRFPEEEEGGCELRVKFSRSADAPAYQQGQNQLYNELNLGRREEYDVLDKRRGRDPEMGGKPRRKNPQEGLYNELQKDKMAEAYSEIGMKGERRRGKGHDGLYQGLSTATKDTYDALHMQALPPR
notes: Chimeric antigen receptor on the surface of human T cells; 38; In the lentiviral vector the CAR is coupled to BFP through a 2A peptide; also called CAR 32716V3
B2: Klon43-v3 CAR (Klo43-3, anti-CD123 chimeric antigen receptor, structure V-3: Klon43 scFv, CD8alpha hinge, CD8alpha transmembrane domain, 41BB intracellular … (other)
chain: EVKLVESGGGLVQPGGSLSLSCAASGFTFTDYYMSWVRQPPGKALEWLALIRSKADGYTTEYSASVKGRFTLSRDDSQSILYLQMNALRPEDSATYYCARDAAYYSYYSPEGAMDYWGQGTSVTVSSGGGGSGGGGSGGGGSMADYKDIVMTQSHKFMSTSVGDRVNITCKASQNVDSAVAWYQQKPGQSPKALIYSASYRYSGVPDRFTGRGSGTDFTLTISSVQAEDLAVYYCQQYYSTPWTFGGGTKLEIKRTTTPAPRPPTPAPTIASQPLSLRPEACRPAAGGAVHTRGLDFACDIYIWAPLAGTCGVLLLSLVITLYCKRGRKKLLYIFKQPFMRPVQTTQEEDGCSCRFPEEEEGGCELRVKFSRSADAPAYQQGQNQLYNELNLGRREEYDVLDKRRGRDPEMGGKPRRKNPQEGLYNELQKDKMAEAYSEIGMKGERRRGKGHDGLYQGLSTATKDTYDALHMQALPPR
notes: Chimeric antigen receptor on the surface of human T cells (mRNA transfection or lentiviral transduction); 44; In the lentiviral vector the CAR is coupled to BFP through a 2A peptide; also called CAR Klon 43 V3; Klon43 CAR

Biological target: T1, CD123-Fc protein (fusion of the …)
Test: flow cytometry on transduced T-cells, CD123-Fc fusion protein detected with PE-conjugated anti-mouse Fc
Method: Transduction of T-cells with recombinant lentiviral vectors expression the CAR was carried out three days after T-cell purification/activation. Lentiviral vectors were produced by Vectalys SA (Toulouse, France) by transfection of genomic and helper plasmids in HEK-293 cells. Transductions were carried out at a multiplicity of infection of 5, using 10⁶ cells per transduction. CAR detection at the surface of T-cells was done using a recombinant protein consisting on the fusion of the extracellular domain of the human CD123 protein together with a murine IgG1 Fc fragment (produced by LakePharma). Binding of this protein to the CAR molecule was detected with a PE-conjugated secondary antibody (Jackson Immunoresearch) targeting the mouse Fc portion of the protein, and analyzed by flow cytometry. […]
CAR detection was done using a fusion protein in which the extracellular domain of the human CD123 protein was fused to a mouse IgG1 derived Fc fragment. Binding of the CAR at the cell surface with the CD123 portion of the fusion protein was detected with anti-Fc PE-conjugated antibody and analyzed by flow cytometry. FIG. 9 represents the % of CAR+ or of Blue fluorescent protein (BFP+) cells (measured by FACS analysis) at Day 8 or 10 post transduction for two different donors.

Binder | binding result
B1 | binds
B2 | binds
